According to paper PMC6817700:

Molecular target: T1, T-box 5 (TBX5) (Homo sapiens, UniProt Q99593 1-518)
T1 sequence: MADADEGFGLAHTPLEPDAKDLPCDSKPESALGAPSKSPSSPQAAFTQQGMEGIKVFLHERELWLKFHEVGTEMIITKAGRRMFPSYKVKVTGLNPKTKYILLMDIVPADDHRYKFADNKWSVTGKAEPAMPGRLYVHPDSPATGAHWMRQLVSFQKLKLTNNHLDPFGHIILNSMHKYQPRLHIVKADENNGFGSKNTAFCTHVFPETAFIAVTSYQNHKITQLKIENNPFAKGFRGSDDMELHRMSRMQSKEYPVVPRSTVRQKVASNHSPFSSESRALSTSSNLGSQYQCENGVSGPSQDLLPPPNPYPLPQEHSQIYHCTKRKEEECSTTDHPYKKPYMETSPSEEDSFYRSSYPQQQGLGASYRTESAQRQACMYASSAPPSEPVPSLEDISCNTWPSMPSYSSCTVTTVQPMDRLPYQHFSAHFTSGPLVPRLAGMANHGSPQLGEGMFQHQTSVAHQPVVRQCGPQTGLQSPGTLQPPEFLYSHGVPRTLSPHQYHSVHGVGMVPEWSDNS
Assay: EMSA

B1: CAGA (rs116461237 G>A) (dsDNA)
DNA 1: GCCCACCTCGGCCTCCCAAAGTTCTAGGATTACAGATGTGAGCTACC
DNA 2: GGTAGCTCACATCTGTAATCCTAGAACTTTGGGAGGCCGAGGTGGGGC
binding result: no binding
